In article PMC11533276, “Critical role of ROCK1 in AD pathogenesis via controlling lysosomal biogenesis and acidification” (Translational Neurodegeneration, 2024):

Target: T1, TFEB (purified protein coupled to the SPR chip) (UniProt P19484 1-476)
T1 chain: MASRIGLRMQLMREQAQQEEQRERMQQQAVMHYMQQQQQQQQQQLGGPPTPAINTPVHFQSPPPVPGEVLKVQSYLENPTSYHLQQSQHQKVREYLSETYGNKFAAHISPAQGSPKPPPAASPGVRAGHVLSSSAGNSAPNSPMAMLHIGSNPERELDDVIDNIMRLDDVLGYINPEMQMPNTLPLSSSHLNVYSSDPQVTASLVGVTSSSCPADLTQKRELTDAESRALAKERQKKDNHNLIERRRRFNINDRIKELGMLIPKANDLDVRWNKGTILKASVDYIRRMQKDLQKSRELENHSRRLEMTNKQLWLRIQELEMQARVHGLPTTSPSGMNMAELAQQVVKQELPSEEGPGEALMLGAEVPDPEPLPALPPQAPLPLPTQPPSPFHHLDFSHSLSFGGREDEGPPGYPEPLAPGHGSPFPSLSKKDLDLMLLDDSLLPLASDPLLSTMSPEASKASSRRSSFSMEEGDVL
Experiment: SPR; TFEB immobilised on a CM5 chip by amine coupling; ROCK1 injected at 312.5 to 5000 nM for 90 s; Biacore T200
Conditions: both partners purified

B1: ROCK1 (protein injected in SPR) (enzyme)
chain: STGDSFETRFEKMDNLLRDPKSEVNSDCLLDGLDALVYDLDFPALRKNKNIDNFLSRYKDTINKIRDLRMKAEDYEVVKVIGRGAFGEVQLVRHKSTRKVYAMKLLSKFEMIKRSDSAFFWEERDIMAFANSPWVVQLFYAFQDDRYLYMVMEYMPGGDLVNLMSNYDVPEKWARFYTAEVVLALDAIHSMGFIHRDVKPDNMLLDKSGHLKLADFGTCMKMNKEGMVRCDTAVGTPDYISPEVLKSQGGDGYYGRECDWWSVGVFLYEMLVGDTPFYADSLVGTYSKIMNHKNSLTFPDDNDISKEAKNLICAFLTDREVRLGRNGVEEIKRHLFFKNDQWAWETLRDTVAPVVPDLSSDIDTSNFDDLEEDKGEEETFPIPKAFVGNQLPFVGFTYYSNRRYLSSANPNDNRTSSNADKSLQESLQKTIYKLEEQLHNEMQLKDEMEQKCRTSNIKLDKIMKELDEEGNQRRNLESTVSQIEKEKMLLQHRINEYQRKAEQENEKRRNVENEVSTLKDQLEDLKKVSQNSQLANEKLSQLQKQLEEANDLLRTESDTAVRLRKSHTEMSKSISQLESLNRELQERNRILENSKSQTDKDYYQLQAILEAERRDRGHDSEMIGDLQARITSLQEEVKHLKHNLEKVEGERKEAQDMLNHSEKEKNNLEIDLNYKLKSLQQRLEQEVNEHKVTKARLTDKHQSIEEAKSVAMCEMEKKLKEEREAREKAENRVVQIEKQCSMLDVDLKQSQQKLEHLTGNKERMEDEVKNLTLQLEQESNKRLLLQNELKTQAFEADNLKGLEKQMKQEINTLLEAKRLLEFELAQLTKQYRGNEGQMRELQDQLEAEQYFSTLYKTQVKELKEEIEEKNRENLKKIQELQNEKETLATQLDLAETKAESEQLARGLLEEQYFELTQESKKAASRNRQEITDKDHTVSRLEEANSMLTKDIEILRRENEELTEKMKKAEEEYKLEKEEEISNLKAAFEKNINTERTLKTQAVNKLAEIMNRKDFKIDRKKANTQDLRKKEKENRKLQLELNQEREKFNQMVVKHQKELNDMQAQLVEECAHRNELQMQLASKESDIEQLRAKLLDLSDSTSVASFPSADETDGNLPESRIEGWLSVPNRGNIKRYGWKKQYVVVSSKKILFYNDEQDKEQSNPSMVLDIDKLFHVRPVTQGDVYRAETEEIPKIFQILYANEGECRKDVEMEPVQQAEKTNFQNHKGHEFIPTLYHFPANCDACAKPLWHVFKPPPALECRRCHVKCHRDHLDKKEDLICPCKVSYDVTSARDMLLLACSQDEQKKWVTHLVKKIPKNPPSGFVRASPRTLSTRSTANQSFRKVVKNTSGKTS
- Kd: 1610 nM
